Source: US20030068675, “Position dependent recognition of GNN nucleotide triplets by zinc fingers” (published 2003)

Key:
Assay in all cases: EMSA
Conditions in all cases: tags: MBP fusion
[1] = biological target: ZFP SBS#1262 (synthetic)
Summary of the method: (§1)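 Purified ZFP was titrated against labeled double-stranded target (1 nM or lower, at least 10-fold below expected Kd) carrying the natural binding site with flanks. Binding buffer was 10 mM Tris pH 7.5, 100 mM KCl, 1 mM MgCl2, 0.1 mM ZnCl2, 5 mM DTT, 10% glycerol, 0.02% BSA, with equilibration for at least 45 min. Bound and free target were separated on a 10% polyacrylamide gel.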

[2] = biological target: ZFP SBS#1263 (synthetic)
Summary of the method: as §1

[3] = biological target: ZFP SBS#558 (synthetic)
ZFP SBS#558 (synthetic), sequence (chain, as listed by the source): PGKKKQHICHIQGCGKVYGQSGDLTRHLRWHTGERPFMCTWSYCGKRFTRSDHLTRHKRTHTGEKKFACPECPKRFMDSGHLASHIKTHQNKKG
Summary of the method: as §1

[4] = biological target: ZFP SBS#1261 (synthetic)
Summary of the method: as §1

[5] = biological target: T1, ZFP SBS#1442 (synthetic)
T1 chain: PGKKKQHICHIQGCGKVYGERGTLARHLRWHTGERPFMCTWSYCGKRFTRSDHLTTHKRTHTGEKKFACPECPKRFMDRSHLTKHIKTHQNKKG
Summary of the method: as §1

[6] = biological target: ZFP SBS#1443 (synthetic)
Summary of the method: as §1

[7] = biological target: T2, ZFP SBS#1445 (synthetic)
T2 chain: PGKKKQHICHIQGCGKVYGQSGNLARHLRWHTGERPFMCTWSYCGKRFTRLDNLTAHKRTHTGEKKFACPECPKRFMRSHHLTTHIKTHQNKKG
Summary of the method: as §1

[8] = biological target: ZFP SBS#1444 (synthetic)
ZFP SBS#1444 (synthetic), sequence (chain, as listed by the source): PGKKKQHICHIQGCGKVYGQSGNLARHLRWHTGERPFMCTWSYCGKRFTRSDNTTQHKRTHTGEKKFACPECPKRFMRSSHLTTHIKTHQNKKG
Summary of the method: as §1

[9] = biological target: ZFP SBS#1446 (synthetic)
ZFP SBS#1446 (synthetic), sequence (chain, as listed by the source): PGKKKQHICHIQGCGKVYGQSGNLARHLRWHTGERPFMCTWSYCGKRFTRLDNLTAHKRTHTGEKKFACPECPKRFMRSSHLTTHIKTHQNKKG
Summary of the method: as §1

[10] = biological target: ZFP SBS#1456 (synthetic)
ZFP SBS#1456 (synthetic), sequence (chain, as listed by the source): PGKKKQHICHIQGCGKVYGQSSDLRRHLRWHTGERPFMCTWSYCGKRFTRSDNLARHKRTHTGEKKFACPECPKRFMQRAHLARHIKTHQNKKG
Summary of the method: as §1

[11] = biological target: ZFP SBS#1454 (synthetic)
Summary of the method: as §1

[12] = biological target: ZFP SBS#1462 (synthetic)
ZFP SBS#1462 (synthetic), sequence (chain, as listed by the source): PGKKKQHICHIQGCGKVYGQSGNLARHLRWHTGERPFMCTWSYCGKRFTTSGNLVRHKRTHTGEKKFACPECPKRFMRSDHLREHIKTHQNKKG
Summary of the method: as §1

[13] = biological target: ZFP SBS#1455 (synthetic)
ZFP SBS#1455 (synthetic), sequence (chain, as listed by the source): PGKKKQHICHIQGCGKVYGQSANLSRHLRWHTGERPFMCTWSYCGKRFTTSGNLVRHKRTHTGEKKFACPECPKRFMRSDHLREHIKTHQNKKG
Summary of the method: as §1

[14] = biological target: T3, ZFP SBS#1464 (synthetic)
T3 chain: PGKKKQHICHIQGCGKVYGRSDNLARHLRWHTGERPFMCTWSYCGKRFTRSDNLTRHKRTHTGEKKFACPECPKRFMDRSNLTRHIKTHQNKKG
Summary of the method: as §1

[15] = biological target: T4, ZFP SBS#1461 (synthetic)
T4 chain: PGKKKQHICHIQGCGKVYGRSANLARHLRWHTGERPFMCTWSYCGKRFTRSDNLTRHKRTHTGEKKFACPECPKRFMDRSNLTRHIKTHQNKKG
Summary of the method: as §1

[16] = biological target: ZFP SBS#1463 (synthetic)
Summary of the method: as §1

[17] = biological target: T5, ZFP SBS#1465 (synthetic)
T5 chain: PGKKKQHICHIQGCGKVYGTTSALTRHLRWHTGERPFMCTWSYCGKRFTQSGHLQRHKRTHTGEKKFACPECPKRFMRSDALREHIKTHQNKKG
Summary of the method: as §1

[18] = biological target: T6, ZFP SBS#1466 (synthetic)
T6 chain: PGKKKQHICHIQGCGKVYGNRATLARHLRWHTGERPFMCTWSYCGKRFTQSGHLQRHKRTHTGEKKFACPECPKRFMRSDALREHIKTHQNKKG
Summary of the method: as §1

[19] = biological target: T7, ZFP SBS#1470 (synthetic)
T7 chain: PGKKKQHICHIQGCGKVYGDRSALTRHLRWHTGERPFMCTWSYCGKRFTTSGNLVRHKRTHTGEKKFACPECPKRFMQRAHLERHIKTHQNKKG
Summary of the method: as §1

[20] = biological target: T8, ZFP SBS#1468 (synthetic)
T8 chain: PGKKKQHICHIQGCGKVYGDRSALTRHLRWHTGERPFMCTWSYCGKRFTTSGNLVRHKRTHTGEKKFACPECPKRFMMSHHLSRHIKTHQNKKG
Summary of the method: as §1

[21] = biological target: T9, ZFP SBS#1469 (synthetic)
T9 chain: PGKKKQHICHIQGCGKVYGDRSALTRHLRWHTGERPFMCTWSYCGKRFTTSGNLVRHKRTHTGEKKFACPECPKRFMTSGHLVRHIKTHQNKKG
Summary of the method: as §1

[22] = biological target: T10, ZFP SBS#1471 (synthetic)
T10 chain: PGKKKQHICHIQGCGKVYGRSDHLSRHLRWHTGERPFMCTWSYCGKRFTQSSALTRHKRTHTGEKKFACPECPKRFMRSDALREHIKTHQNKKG
Summary of the method: as §1

[23] = biological target: T11, ZFP SBS#1490 (synthetic)
T11 chain: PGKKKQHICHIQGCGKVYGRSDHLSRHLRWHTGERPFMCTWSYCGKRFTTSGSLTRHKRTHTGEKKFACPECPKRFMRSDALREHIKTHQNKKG
Summary of the method: as §1

[24] = biological target: T12, ZFP SBS#1472 (synthetic)
T12 chain: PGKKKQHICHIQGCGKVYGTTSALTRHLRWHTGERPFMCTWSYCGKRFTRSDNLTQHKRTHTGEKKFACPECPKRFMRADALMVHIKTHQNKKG
Summary of the method: as §1

[25] = biological target: T13, ZFP SBS#1474 (synthetic)
T13 chain: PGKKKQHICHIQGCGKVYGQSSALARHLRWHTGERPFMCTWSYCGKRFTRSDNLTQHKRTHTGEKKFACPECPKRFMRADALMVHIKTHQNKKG
Summary of the method: as §1

[26] = biological target: T14, ZFP SBS#1476 (synthetic)
T14 chain: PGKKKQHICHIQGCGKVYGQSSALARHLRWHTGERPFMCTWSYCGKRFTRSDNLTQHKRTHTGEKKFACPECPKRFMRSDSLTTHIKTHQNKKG
Summary of the method: as §1

[27] = biological target: T15, ZFP SBS#1475 (synthetic)
T15 chain: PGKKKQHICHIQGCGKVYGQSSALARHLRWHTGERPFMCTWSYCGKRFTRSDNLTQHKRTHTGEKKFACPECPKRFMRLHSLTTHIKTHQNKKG
Summary of the method: as §1

[28] = biological target: T16, ZFP SBS#1487 (synthetic)
T16 chain: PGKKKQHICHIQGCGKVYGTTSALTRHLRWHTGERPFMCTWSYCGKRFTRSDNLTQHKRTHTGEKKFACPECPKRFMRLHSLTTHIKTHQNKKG
Summary of the method: as §1

[29] = biological target: T17, ZFP SBS#1473 (synthetic)
T17 chain: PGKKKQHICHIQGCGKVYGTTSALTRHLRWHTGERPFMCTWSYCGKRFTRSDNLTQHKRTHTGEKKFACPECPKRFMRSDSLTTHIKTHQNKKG
Summary of the method: as §1

[30] = biological target: T18, ZFP SBS#1477 (synthetic)
T18 chain: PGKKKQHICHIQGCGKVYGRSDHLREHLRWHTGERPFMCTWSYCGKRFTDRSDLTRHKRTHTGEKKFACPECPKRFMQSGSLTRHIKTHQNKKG
Summary of the method: as §1

[31] = biological target: T19, ZFP SBS#1479 (synthetic)
T19 chain: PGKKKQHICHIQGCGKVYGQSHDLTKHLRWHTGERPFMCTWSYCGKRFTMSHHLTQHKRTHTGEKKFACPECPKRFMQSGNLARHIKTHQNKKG
Summary of the method: as §1

[32] = biological target: T20, ZFP SBS#1480 (synthetic)
T20 chain: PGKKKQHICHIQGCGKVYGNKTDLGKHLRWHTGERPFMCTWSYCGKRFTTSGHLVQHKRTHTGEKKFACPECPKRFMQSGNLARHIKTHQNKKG
Summary of the method: as §1

[33] = biological target: T21, ZFP SBS#1481 (synthetic)
T21 chain: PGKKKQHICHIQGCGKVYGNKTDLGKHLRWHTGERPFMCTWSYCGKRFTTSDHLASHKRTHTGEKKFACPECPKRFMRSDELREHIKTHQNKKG
Summary of the method: as §1

[34] = biological target: T22, ZFP SBS#1483 (synthetic)
T22 chain: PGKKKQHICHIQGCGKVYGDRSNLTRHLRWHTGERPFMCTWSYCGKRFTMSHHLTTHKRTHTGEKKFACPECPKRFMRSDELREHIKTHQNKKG
Summary of the method: as §1

[35] = biological target: T23, ZFP SBS#1482 (synthetic)
T23 chain: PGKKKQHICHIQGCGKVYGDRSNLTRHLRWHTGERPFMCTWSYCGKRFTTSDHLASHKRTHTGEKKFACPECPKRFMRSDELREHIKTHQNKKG
Summary of the method: as §1

[36] = biological target: ZFP SBS#1484 (synthetic)
ZFP SBS#1484 (synthetic), sequence (chain, as listed by the source): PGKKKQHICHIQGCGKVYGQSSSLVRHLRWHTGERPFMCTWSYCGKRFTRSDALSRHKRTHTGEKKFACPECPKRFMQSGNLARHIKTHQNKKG
Summary of the method: as §1

[37] = biological target: ZFP SBS#1485 (synthetic)
Summary of the method: as §1

[38] = biological target: T24, ZFP SBS#1491 (synthetic)
T24 chain: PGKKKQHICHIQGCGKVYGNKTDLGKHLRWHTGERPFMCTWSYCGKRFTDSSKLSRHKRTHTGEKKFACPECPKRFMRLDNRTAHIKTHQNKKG
Summary of the method: as §1

ZFP SBS#1262 (synthetic), sequence (chain, as listed by the source): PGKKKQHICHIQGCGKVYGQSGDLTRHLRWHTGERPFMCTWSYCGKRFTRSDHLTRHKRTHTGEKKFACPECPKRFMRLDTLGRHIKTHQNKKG

B1: TGCGGGGCA (dsDNA)
DNA 1: TGCGGGGCA
DNA 2: TGCCCCGCA
Kd [1]: 3 nM
Kd [2]: 21 nM
Kd [3]: 21 nM
Kd [4]: 0.2 nM

B2: TGCTGGGCC (dsDNA)
DNA 1: TGCTGGGCC
DNA 2: GGCCCAGCA
Kd [5]: 0.36 nM

B3: TGGAAGGAA (dsDNA)
DNA 1: TGGAAGGAA
DNA 2: TTCCTTCCA
Kd [6]: 0.22 nM
Kd [7]: 0.182 nM
Kd [8]: 0.09 nM
Kd [9]: 0.42 nM

B4: GGAGAGGCT (dsDNA)
DNA 1: GGAGAGGCT
DNA 2: AGCCTCTCC
Kd [10]: 0.016 nM
Kd [11]: 0.01 nM

B5: CGGGATGAA (dsDNA)
DNA 1: CGGGATGAA
DNA 2: TTCATCCCG
Kd [12]: 0.05 nM
Kd [13]: 0.043 nM

B6: GACGAGGAG (dsDNA)
DNA 1: GACGAGGAG
DNA 2: CTCCTCGTC
Kd [14]: 2 pM
Kd [15]: 0.014 nM

B7: GAGGCTGTT (dsDNA)
DNA 1: GAGGCTGTT
DNA 2: AACAGCCTC
Kd [16]: 3 pM

B8: CTGGGAGTT (dsDNA)
DNA 1: CTGGGAGTT
DNA 2: AACTCCCAG
Kd [17]: 0.018 nM
Kd [18]: 0.017 nM

B9: GGTGATGTC (dsDNA)
DNA 1: GGTGATGTC
DNA 2: GACATCACC
Kd [19]: 0.156 nM
Kd [20]: 0.08 nM
Kd [21]: 0.28 nM

B10: CTGGTTGGG (dsDNA)
DNA 1: CTGGTTGGG
DNA 2: CCCAACCAG
Kd [22]: 0.09 nM
Kd [23]: 0.04 nM

B11: TTGAAGGTT (dsDNA)
DNA 1: TTGAAGGTT
DNA 2: AACCTTCAA
Kd [24]: 3.22 nM
Kd [25]: 1.39 nM
Kd [26]: 0.305 nM
Kd [27]: 0.39 nM
Kd [28]: 0.188 nM
Kd [29]: 0.47 nM

B12: GCAGCCCGG (dsDNA)
DNA 1: GCAGCCCGG
DNA 2: CCGGGCTGC
Kd [30]: 2.31 nM

B13: GAAAGTTCA (dsDNA)
DNA 1: GAAAGTTCA
DNA 2: TGAACTTTC
Kd [31]: 37 nM
Kd [32]: 62.5 nM
Kd [33]: 37 nM

B14: CCGTGTGAC (dsDNA)
DNA 1: CCGTGTGAC
DNA 2: GTCACACGG
Kd [34]: 20.8 nM
Kd [35]: 111 nM

B15: GAAGTGGTA (dsDNA)
DNA 1: GAAGTGGTA
DNA 2: TACCACTTC
Kd [36]: 0.01 nM

B16: AAGTGAGCT (dsDNA)
DNA 1: AAGTGAGCT
DNA 2: AGCTCACTT
Kd [37]: 1.54 nM

B17: AAGGGTTCA (dsDNA)
DNA 1: AAGGGTTCA
DNA 2: TGAACCCTT
Kd [38]: 4.12 nM
